PMC6879610 (2019)

T1: MPER peptide PDT-081 (HIV-1, biotin at the C-terminus)
T1 chain: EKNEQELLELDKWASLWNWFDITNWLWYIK

B1: PGZL1.H4K3 IgG (antibody, V domains shown)
VH: KVQLVQSGAELKKPWSSVRVSCKASGGSFSSYAFNWVRQAPGQRLEWLGGIVPLVSSTNYAQRFRGRVTISADRSTSTVYLEMTGLTSADTAVYFCAREGEGWFGRPLRAFEFWGQGTLVTVST
VL: EIVLTQSPGTFALSPGERATLSCRASQSVSGGALAWYQQKAGQAPRLLIYGTSGRATGVPGRFSGSGSETDFSLTISRLEPEDFAVYYCQQYGTSQSTFGQGTRLETR
B2: H4K3_SFS28EPE IgG (antibody, V domains shown)
VH: KVQLVQSGAELKKPWSSVRVSCKASGGEPESYAFNWVRQAPGQRLEWLGGIVPLVSSTNYAQRFRGRVTISADRSTSTVYLEMTGLTSADTAVYFCAREGEGWFGRPLRAFEFWGQGTLVTVST
VL: EIVLTQSPGTFALSPGERATLSCRASQSVSGGALAWYQQKAGQAPRLLIYDTSGRATGVPGRFSGSGSETDFSLTISRLEPEDFAVYYCQQYGTSQSTFGQGTRLETR
B3: H4K3_RS73PE IgG (antibody, V domains shown)
VH: KVQLVQSGAELKKPWSSVRVSCKASGGSFSSYAFNWVRQAPGQRLEWLGGIVPLVSSTNYAQRFRGRVTISADPETSTVYLEMTGLTSADTAVYFCAREGEGWFGRPLRAFEFWGQGTLVTVST
VL: EIVLTQSPGTFALSPGERATLSCRASQSVSGGALAWYQQKAGQAPRLLIYDTSGRATGVPGRFSGSGSETDFSLTISRLEPEDFAVYYCQQYGTSQSTFGQGTRLETR
B4: H4K3_5M IgG (antibody, V domains shown)
VH: KVQLVQSGAELKKPWSSVRVSCKASGGEPESYAFNWVRQAPGQRLEWLGGIVPLVSSTNYAQRFRGRVTISADPETSTVYLEMTGLTSADTAVYFCAREGEGWFGRPLRAFEFWGQGTLVTVST
VL: EIVLTQSPGTFALSPGERATLSCRASQSVSGGALAWYQQKAGQAPRLLIYDTSGRATGVPGRFSGSGSETDFSLTISRLEPEDFAVYYCQQYGTSQSTFGQGTRLETR
B5: H4K3_5M Fab (Fab, V domains shown)
VH: KVQLVQSGAELKKPWSSVRVSCKASGGEPESYAFNWVRQAPGQRLEWLGGIVPLVSSTNYAQRFRGRVTISADPETSTVYLEMTGLTSADTAVYFCAREGEGWFGRPLRAFEFWGQGTLVTVST
VL: EIVLTQSPGTFALSPGERATLSCRASQSVSGGALAWYQQKAGQAPRLLIYDTSGRATGVPGRFSGSGSETDFSLTISRLEPEDFAVYYCQQYGTSQSTFGQGTRLETR
B6: H4K3_SFS28EPE Fab (Fab, V domains shown)
VH: KVQLVQSGAELKKPWSSVRVSCKASGGEPESYAFNWVRQAPGQRLEWLGGIVPLVSSTNYAQRFRGRVTISADRSTSTVYLEMTGLTSADTAVYFCAREGEGWFGRPLRAFEFWGQGTLVTVST
VL: EIVLTQSPGTFALSPGERATLSCRASQSVSGGALAWYQQKAGQAPRLLIYDTSGRATGVPGRFSGSGSETDFSLTISRLEPEDFAVYYCQQYGTSQSTFGQGTRLETR
B7: H4K3_RS73PE Fab (Fab, V domains shown)
VH: KVQLVQSGAELKKPWSSVRVSCKASGGSFSSYAFNWVRQAPGQRLEWLGGIVPLVSSTNYAQRFRGRVTISADPETSTVYLEMTGLTSADTAVYFCAREGEGWFGRPLRAFEFWGQGTLVTVST
VL: EIVLTQSPGTFALSPGERATLSCRASQSVSGGALAWYQQKAGQAPRLLIYDTSGRATGVPGRFSGSGSETDFSLTISRLEPEDFAVYYCQQYGTSQSTFGQGTRLETR

Molecular target: T1, MPER peptide PDT-081
Assay: ELISA

Row | Binder | EC50
1 | B1 | 0.039 µg/mL
2 | B2 | 0.076 µg/mL
3 | B3 | 0.09 µg/mL
4 | B4 | 0.083 µg/mL

Molecular target: T1, MPER peptide PDT-081
Assay: BLI

Row | Binder | koff
5 | B5 | 0.00067 s⁻¹
6 | B6 | 0.00054 s⁻¹
7 | B7 | 0.00051 s⁻¹
